Experimental data taken from patent US20120028912A1.

Target: lysine-acetylated histone H4 peptide SGRGKGG-AcK-GLGK (Lys8 acetylated)
Assay: NMR titration, 15N-HSQC chemical shift changes against ligand concentration

Kd: 346 µM
B1: bromodomain of P/CAF (residues 719-832 of SEQ ID NO:2), Q92831 719-832 (protein)
chain: SKEPRDPDQLYSTLKSILQQVKSHQSAWPFMEPVKRTEAPGYYEVIRFPMDLKTMSERLKNRYYVSKKLFMADLQRVFTNCKEYNAAESEYYKCANILEKFFFSKIKEAGLIDK
